Two molecules from paper PMC7073074 (2020) can be followed below.

For assay [1], the target named is T1, rabbit muscle F-actin (Oryctolagus cuniculus (Rabbit), UniProt P68135). Put plainly: F-actin co-sedimentation, Coomassie SDS-PAGE.
Assay [2] addresses T1, rabbit muscle F-actin. Put plainly: F-actin co-sedimentation, Coomassie SDS-PAGE (apparent Kd given only as 8.9 µg, CI 5-20 µg); low ionic strength: co-pellets at 50 mM NaCl but not at 100 or 150 mM NaCl; polymerised (F-)actin.

B1: FLAG-tagged coronin A lacking the coiled coil (protein)
chain: MSKVVRSSKYRHVFAAQPKKEECYQNLKVTKSAWDSNYVAANTRYFGVIWDAAGGGSFAVIPHEASGKTTSVPLFNGHKSAVLDIAFHPFNENLVGSVSEDCNICIWGIPEGGLTDSISTPLQTLSGHKRKVGTISFNPVADNVAVTSSGDFLVKTWDVEQGKNLTTVEGHSDMITSCEWNHNGSQIVTTCKDKKARVFDPRTNSIVNEVVCHQGVKNSRAIFAKDKVITVGFSKTSERELHIYDPRAFTTPLSAQVVDSASGLLMPFYDADNSILYLAGKGDGNIRYYELVDESPYIHFLSEFKSATPQRGLCFLPKRCLNTSECEIARGLKVTPFTVEPISFRVPRKSDIFQDDIYPDTYAGEPSLTAEQWVSGTNAEPKTVSLAGGFVKKASAVEFKPVVQVQEGPKN
With B1, in assay [1], the binding result is “no binding”.

B2: FLAG-tagged coronin A (protein)
chain: MSKVVRSSKYRHVFAAQPKKEECYQNLKVTKSAWDSNYVAANTRYFGVIWDAAGGGSFAVIPHEASGKTTSVPLFNGHKSAVLDIAFHPFNENLVGSVSEDCNICIWGIPEGGLTDSISTPLQTLSGHKRKVGTISFNPVADNVAVTSSGDFLVKTWDVEQGKNLTTVEGHSDMITSCEWNHNGSQIVTTCKDKKARVFDPRTNSIVNEVVCHQGVKNSRAIFAKDKVITVGFSKTSERELHIYDPRAFTTPLSAQVVDSASGLLMPFYDADNSILYLAGKGDGNIRYYELVDESPYIHFLSEFKSATPQRGLCFLPKRCLNTSECEIARGLKVTPFTVEPISFRVPRKSDIFQDDIYPDTYAGEPSLTAEQWVSGTNAEPKTVSLAGGFVKKASAVEFKPVVQVQEGPKNEKELREEYEKLKIRVAYLESEIVKKDAKIKELTN
Regarding B2, in assay [2], the binding result is on record as “binds”.
